From patent US8859026B2, “Method for reducing methoxypyrazines in grapes and grape products” (Brock University, priority 2009, dated 2014)
Like-named read-outs stand apart in the source and are kept apart here. Blank lines part the entries; values can stand above or below the molecule they belong to.

How the values were obtained:
[1] = biological target: T1, piglet OBP (Sus scrofa, UniProt P81245); assay: Competitive fluorescent binding assay: displacement of 1-AMA from piglet OBP by odorants IPMP and IBMP; design: species or system porcine
T1 construct: made in house; host or cells: Pichia pastoris GS115 (pPIC9, alpha-mating factor secretion signal)
T1 sequence (P81245 with tags, fused parts or gaps): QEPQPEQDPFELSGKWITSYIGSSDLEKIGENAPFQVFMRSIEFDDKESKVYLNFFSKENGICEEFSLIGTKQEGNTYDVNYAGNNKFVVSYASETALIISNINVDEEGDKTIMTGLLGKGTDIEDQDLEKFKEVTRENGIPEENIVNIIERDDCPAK
Experimental: The interaction of odorants with AMA complex was examined by monitoring the decrease in fluorescence intensity of protein/1-AMA complex upon the addition of competitor compounds.
In competitive binding assays, 1-AMA (10 μM) was equilibrated with protein (2 μM) at pH 7.2 50 mM sodium phosphate buffer and pH 3.0 50 mM citrate phosphate buffer, and titrated with increasing concentrations of odorants (0-100 μM) solubilized in 10% v/v methanol.
The affinity of OBPs for odorants was estimated by plotting the decrease of intensity of 1-AMA fluorescence at the emission maximum, (22). Odorant concentrations causing fluorescence decay to half-maximal intensity (IC50 values) were determined from the plot of (I−Imin)/(I0−Imin) against the competitor concentration; I0 is the maximum of fluorescence intensity of the protein/1-AMA complex; I is the fluorescence intensity after addition of an aliquot of competitor, and Imin the fluorescence intensity at saturating concentration of the competitor.

[2] = Protein-MP binding reaction, complex removed by bentonite fining and 0.22 μm filtration, free IBMP by GC/MS; conditions: Chardonnay Juice at pH 3.5
Experimental: The protein solutions, in a 2 ml volume, were spiked with IBMP or IPMP at 300 ng/l and allowed to incubate in a glass vial for 2 h, at RT on a gel shaker. In binding reactions using bentonite to remove the protein-MP complex, the binding reactions were performed in pH 3.5 and pH 4 using bentonite (3 g/l) to remove the protein and protein-ligand complex. To remove any residual bentonite from the reaction, samples were also filtered through a 0.22 μm Durapore filter unit (Millipore). In another assay using a 10 kDa cutoff filter to remove the protein-MP complex, the binding reactions were performed in buffer at pH 3 and pH 7.2. The reactions were centrifuged through a 10 KDa molecular weight cut-off (10MWCO) Omega filter unit made of polyethersulfone (PALL Life Sciences) to separate the proteins and bound MP from the free MP fraction. The concentration of free (unbound) MP fraction was then determined using HS SPME GC/MS. The limit of quantification for the compound IBMP was determined to be 6 ng/L and for IPMP was 2 ng/L, based on 10 times signal/noise. The limit of detection for MPs in the present system is 1.8 ng/L for IBMP and 0.6 ng/L for IPMP as calculated based on 3 times the signal/noise ratio. The data has been reported to the limit of quantification in the figures. […]

[3] = physiological pH, published values; read-out: apparent Kd for IBMP / MPs, literature; cited from earlier work
[4] = Protein-MP binding reaction, complex removed by 10 kDa cut-off PES membrane filtration, free IBMP by HS SPME GC/MS
Experimental: (§1) The freeze dried preparations of pIOBP and mMUPII were resuspended in phosphate citrate buffers at pH 3.0, 3.5 or 4.0 or phosphate buffer at pH 7.2, to final concentrations between 40-50 μM. The protein solutions, in a 2 ml volume, were spiked with IBMP or IPMP at 300 ng/l and allowed to incubate in a glass vial for 2 h, at RT on a gel shaker. In binding reactions using bentonite to remove the protein-MP complex, the binding reactions were performed in pH 3.5 and pH 4 using bentonite (3 g/l) to remove the protein and protein-ligand complex. To remove any residual bentonite from the reaction, samples were also filtered through a 0.22 μm Durapore filter unit (Millipore). In another assay using a 10 kDa cutoff filter to remove the protein-MP complex, the binding reactions were performed in buffer at pH 3 and pH 7.2. The reactions were centrifuged through a 10 KDa molecular weight cut-off (10MWCO) Omega filter unit made of polyethersulfone (PALL Life Sciences) to separate the proteins and bound MP from the free MP fraction. The concentration of free (unbound) MP fraction was then determined using HS SPME GC/MS. The limit of quantification for the compound IBMP was determined to be 6 ng/L and for IPMP was 2 ng/L, based on 10 times signal/noise. The limit of detection for MPs in the present system is 1.8 ng/L for IBMP and 0.6 ng/L for IPMP as calculated based on 3 times the signal/noise ratio. The data has been reported to the limit of quantification in the figures.
(§2) For the membrane filtration trials, the starting concentration of MPs in the reaction were tested, the free MPs after the 10MWCO filtration without addition of protein were tested, and the free MPs in solution after the protein binding reaction and filtration were tested.

[5] = Protein-MP binding reaction, complex removed by 10 kDa cut-off PES membrane filtration, free IPMP by HS SPME GC/MS
Experimental: as §1, §2

[6] = pH of binding: 7.4; cited from earlier work
[7] = Binding of human OBPIIaα to fluorescent probes 1,8 ANS and 1-AMA; conditions: pH 7.2 and 3.0
Experimental: The excitation wavelength of 372 nm was used for ANS and fluorescence emission intensity was monitored at 475 nm. […] The excitation wavelength of 290 nm was used and fluorescence emission intensity was monitored at 490 nm.
Fluorescence ligand binding experiments were performed on a Photon Technology International (London, Canada) Quanta Master Model QM2001 fluorometer at room temperature (19-20° C.), using 1 cm light path quartz cuvettes (Hellma). Slit width of 2 nm was used for excitation and emission for assaying a proteins except ratOBP1F, for which excitation and emission slit width of 6 nm was used.

[8] = Intrinsic fluorescence of human OBPIIaα at pH 7.2 and pH 3.0; format: physicochemical; conditions: pH 3.0 vs pH 7.2

Molecule: COc1nccnc1C(C)C [IPMP, 2-isopropyl-3-methoxypyrazine]
IC50 ([1]; pH 3.0): 5.98 µM
Kd ([1]; pH 3.0, calculated from IC50, read-out: Kd for piglet OBP): 2.34 µM
Kd ([1]; pH 3, read-out: apparent Kd for pIOBP): 2.1 µM
higher affinity for pIOBP at pH 3.0 compared with pH 7.2 ([1]; pH 3.0 vs pH 7.2): about 2 fold
IC50 ([1]; pH 7.2): 32.8 µM
Kd ([1]; pH 7.2, calculated from IC50, read-out: Kd for piglet OBP): 4.46 µM
Kd ([1]; pH 7.2, read-out: apparent Kd for pIOBP): 4.5 µM

B2: mouse MUPI: mouse major urinary protein I (Uniprot P11588), differs from MUPII by three amino acid residues (protein, UniProt P11588 19-180, looked up)
Major urinary protein 1: EEASSTGRNFNVEKINGEWHTIILASDKREKIEDNGNFRLFLEQIHVLENSLVLKFHTVRDEECSELSMVADKTEKAGEYSVTYDGFNTFTIPKTDYDNFLMAHLINEKDGETFQLMGLYGREPDLSSDIKERFAQLCEKHGILRENIIDLSNANRCLQARE
binding of methoxypyrazines [6]: binds both IPMP and IBMP

Second part, led by results:

IBMP reduction by protein beyond bentonite and filter [2]: further reduced
IBMP concentration after protein treatment and 10 MWCO filtration ([4]; Chardonnay juice, limit of quantification): 6 ng/L
IBMP concentration after protein treatment and 10 MWCO filtration ([4]; pH 3.0 buffer, 300 ng/l spike, limit of quantification): 6 ng/L
IBMP concentration after protein treatment and 10 MWCO filtration ([4]; pH 7.2 buffer, 300 ng/l spike): 11 ng/L
IPMP concentration after protein treatment and 10 MWCO filtration ([5]; juice): 4 ng/L
IPMP concentration after protein treatment and 10 MWCO filtration ([5]; pH 3.0 buffer): 3 ng/L
IPMP concentration after protein treatment and 10 MWCO filtration ([5]; pH 7.2 buffer): 3 ng/L
B1: mouse MUPII: mouse major urinary protein isoform II (Genbank AJ309921, Uniprot P11589), recombinant from P. pastoris (protein, UniProt P11589 19-180, looked up)
Major urinary protein 2: EEASSTGRNFNVEKINGEWHTIILASDKREKIEDNGNFRLFLEQIHVLEKSLVLKFHTVRDEECSELSMVADKTEKAGEYSVTYDGFNTFTIPKTDYDNFLMAHLINEKDGETFQLMGLYGREPDLSSDIKERFAKLCEEHGILRENIIDLSNANRCLQARE
modifications: recombinant from Pichia pastoris
Kd [3]: 0.94 µM

binding to fluorescent probes [7]: shows binding
B3: human OBPIIaα: human odorant binding protein IIa alpha (Genbank AJ251021, UniProt Q9NY56), recombinant from P. pastoris (protein, UniProt Q9NY56 16-170, looked up)
Odorant-binding protein 2a: LSFTLEEEDITGTWYVKAMVVDKDFPEDRRPRKVSPVKVTALGGGNLEATFTFMREDRCIQKKILMRKTEEPGKFSAYGGRKLIYLQELPGTDDYVFYCKDQRRGGLRYMGKLVGRNPNTNLEALEEFKKLVQHKGLSEEDIFMPLQTGSCVLEH
modifications: recombinant from Pichia pastoris
protein conformation on acidification (tryptophan emission maximum) [8]: does not modify protein conformation
Kd [3]: 0.9 to 1.1 µM
